Assay results taken from patent publication US20220298260A1 (MYTHIC THERAPEUTICS, published 2022).

Biological target: T1, FOLR1 (R&D Systems, Cat #5646-FR) (human, UniProt P15328 25-233)
T1 construct: Bought soluble protein; also called Folate Receptor 1
Assay: BLI, IgG on anti-human Fc sensor, 50 nM FOLR1

T1 sequence (P15328 25-233 limits assumed): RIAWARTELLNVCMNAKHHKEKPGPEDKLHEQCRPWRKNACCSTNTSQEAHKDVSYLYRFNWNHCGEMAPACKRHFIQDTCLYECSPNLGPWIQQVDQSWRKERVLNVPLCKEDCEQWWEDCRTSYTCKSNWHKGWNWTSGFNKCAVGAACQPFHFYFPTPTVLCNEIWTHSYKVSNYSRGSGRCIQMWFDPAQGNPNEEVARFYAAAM

| binding result | Binder |
| --- | --- |
| binds | MYT4514 (antibody, V domains shown, IgG) VH: EVQLVESGGGLVQPGGSLRLSCAASGFNIRTQSIHWVRQAPGKGLEWIGDIFPIDGITDYADSVKGRFTISADTSKNTAYLQMNSLRAEDTAVYYCARGSWSWPSGMDYYLDYWGQGTLVTVSS VL: not shown |
| binds | MYT4518 (antibody, V domains shown, IgG) VH: EVQLVESGGGLVQPGGSLRLSCAASGFNIRTQSIHWVRQAPGKGLEWIGDIFPIDGITDYADSVKGRFTISADTSKNTAYLQMNSLRAEDTAVYYCARGSWSWPSGMDYYLDYWGQGTLVTVSS VL: not shown |
| binds | MYT4513 (antibody, V domains shown, IgG) VH: EVQLVESGGGLVQPGGSLRLSCAASGFNIRTQSIHWVRQAPGKGLEWIGDIFPIDGITDYADSVKGRFTISADTSKNTAYLQMNSLRAEDTAVYYCARGSWSWPSGMDYYLDYWGQGTLVTVSS VL: not shown |
| binds | MYT4512 (antibody, V domains shown, IgG) VH: EVQLVESGGGLVQPGGSLRLSCAASGFNIRTQSIHWVRQAPGKGLEWIGDIFPIDGITDYADSVKGRFTISADTSKNTAYLQMNSLRAEDTAVYYCARGSWSWPSGMDYYLDYWGQGTLVTVSS VL: not shown |
| binds | MYT4516 (antibody, V domains shown, IgG) VH: EVQLVESGGGLVQPGGSLRLSCAASGFNIRTQSIHWVRQAPGKGLEWIGDIFPIDGITDYADSVKGRFTISADTSKNTAYLQMNSLRAEDTAVYYCARGSWSWPSGMDYYLDYWGQGTLVTVSS VL: not shown |
| binds | MYT4515 (antibody, V domains shown, IgG) VH: EVQLVESGGGLVQPGGSLRLSCAASGFNIRTQSIHWVRQAPGKGLEWIGDIFPIDGITDYADSVKGRFTISADTSKNTAYLQMNSLRAEDTAVYYCARGSWSWPSGMDYYLDYWGQGTLVTVSS VL: not shown |
| binds | MYT4508 (antibody, V domains shown, IgG) VH: EVQLVESGGGLVQPGGSLRLSCAASGFNIRTQSIHWVRQAPGKGLEWIGDIFPIDGITDYADSVKGRFTISADTSKNTAYLQMNSLRAEDTAVYYCARGSWSWPSGMDYYLDYWGQGTLVTVSS VL: not shown |
| binds | MYT4519 (antibody, V domains shown, IgG) VH: EVQLVESGGGLVQPGGSLRLSCAASGFNIRTQSIHWVRQAPGKGLEWIGDIFPIDGITDYADSVKGRFTISADTSKNTAYLQMNSLRAEDTAVYYCARGSWSWPSGMDYYLDYWGQGTLVTVSS VL: not shown |
| binds | MYT4511 (antibody, V domains shown, IgG) VH: EVQLVESGGGLVQPGGSLRLSCAASGFNIRTQSIHWVRQAPGKGLEWIGDIFPIDGITDYADSVKGRFTISADTSKNTAYLQMNSLRAEDTAVYYCARGSWSWPSGMDYYLDYWGQGTLVTVSS VL: not shown |
| binds | MYT4517 (antibody, V domains shown, IgG) VH: EVQLVESGGGLVQPGGSLRLSCAASGFNIRTQSIHWVRQAPGKGLEWIGDIFPIDGITDYADSVKGRFTISADTSKNTAYLQMNSLRAEDTAVYYCARGSWSWPSGMDYYLDYWGQGTLVTVSS VL: not shown |

Further lines, the binder ahead of its results:

| Binder | binding result |
| --- | --- |
| MYT2185 (antibody, V domains shown, IgG) VH: EVQLVESGGGVVQPGRSLRLSCSASHFTFSGYGLSWVRQAPGKGLEWVAMISSGGSYTYYADSVKGRFAISRDNAKNTLFLQMDSLRPEDTGVYFCARHGDDPAWFAYWGQGTPVTVSS VL: DIQLTQSPSSLSASVGDRVTITCSVSSSISSNNLHWYQQKPGKAPKPWIYGTSNLASGVPSRFSGSGSGTDYTFTISSLQPEDIATYYCQQWSSYPYMYTFGQGTKVEIK | binds |
| MYT2188 (antibody, V domains shown, IgG) VH: EVQLVESGGGVVQPGRSLRLSCSASGFTHSGYGLSWVRQAPGKGLEWVAMISSGGSYTYYADSVKGRFAISRDNAKNTLFLQMDSLRPEDTGVYFCARHGDDPAWFAYWGQGTPVTVSS VL: DIQLTQSPSSLSASVGDRVTITCSVSSSISSNNLHWYQQKPGKAPKPWIYGTSNLASGVPSRFSGSGSGTDYTFTISSLQPEDIATYYCQQWSSYPYMYTFGQGTKVEIK | binds |
| MYT2193 (antibody, V domains shown, IgG) VH: EVQLVESGGGVVQPGRSLRLSCSASGFTFSGYGHSWVRQAPGKGLEWVAMISSGGSYTYYADSVKGRFAISRDNAKNTLFLQMDSLRPEDTGVYFCARHGDDPAWFAYWGQGTPVTVSS VL: DIQLTQSPSSLSASVGDRVTITCSVSSSISSNNLHWYQQKPGKAPKPWIYGTSNLASGVPSRFSGSGSGTDYTFTISSLQPEDIATYYCQQWSSYPYMYTFGQGTKVEIK | binds |
| MYT2198 (antibody, V domains shown, IgG) VH: EVQLVESGGGVVQPGRSLRLSCSASGFTFSGYGLSWVRQAPGKGLEWVAMISHGGSYTYYADSVKGRFAISRDNAKNTLFLQMDSLRPEDTGVYFCARHGDDPAWFAYWGQGTPVTVSS VL: DIQLTQSPSSLSASVGDRVTITCSVSSSISSNNLHWYQQKPGKAPKPWIYGTSNLASGVPSRFSGSGSGTDYTFTISSLQPEDIATYYCQQWSSYPYMYTFGQGTKVEIK | binds |
| MYT2190 (antibody, V domains shown, IgG) VH: EVQLVESGGGVVQPGRSLRLSCSASGFTFSHYGLSWVRQAPGKGLEWVAMISSGGSYTYYADSVKGRFAISRDNAKNTLFLQMDSLRPEDTGVYFCARHGDDPAWFAYWGQGTPVTVSS VL: DIQLTQSPSSLSASVGDRVTITCSVSSSISSNNLHWYQQKPGKAPKPWIYGTSNLASGVPSRFSGSGSGTDYTFTISSLQPEDIATYYCQQWSSYPYMYTFGQGTKVEIK | binds |
| MYT2199 (antibody, V domains shown, IgG) VH: EVQLVESGGGVVQPGRSLRLSCSASGFTFSGYGLSWVRQAPGKGLEWVAMISSHGSYTYYADSVKGRFAISRDNAKNTLFLQMDSLRPEDTGVYFCARHGDDPAWFAYWGQGTPVTVSS VL: DIQLTQSPSSLSASVGDRVTITCSVSSSISSNNLHWYQQKPGKAPKPWIYGTSNLASGVPSRFSGSGSGTDYTFTISSLQPEDIATYYCQQWSSYPYMYTFGQGTKVEIK | binds |
| MYT2186 (antibody, V domains shown, IgG) VH: EVQLVESGGGVVQPGRSLRLSCSASGHTFSGYGLSWVRQAPGKGLEWVAMISSGGSYTYYADSVKGRFAISRDNAKNTLFLQMDSLRPEDTGVYFCARHGDDPAWFAYWGQGTPVTVSS VL: DIQLTQSPSSLSASVGDRVTITCSVSSSISSNNLHWYQQKPGKAPKPWIYGTSNLASGVPSRFSGSGSGTDYTFTISSLQPEDIATYYCQQWSSYPYMYTFGQGTKVEIK | binds |
| MYT2202 (antibody, V domains shown, IgG) VH: EVQLVESGGGVVQPGRSLRLSCSASGFTFSGYGLSWVRQAPGKGLEWVAMISSGGSHTYYADSVKGRFAISRDNAKNTLFLQMDSLRPEDTGVYFCARHGDDPAWFAYWGQGTPVTVSS VL: DIQLTQSPSSLSASVGDRVTITCSVSSSISSNNLHWYQQKPGKAPKPWIYGTSNLASGVPSRFSGSGSGTDYTFTISSLQPEDIATYYCQQWSSYPYMYTFGQGTKVEIK | binds |
| MYT2192 (antibody, V domains shown, IgG) VH: EVQLVESGGGVVQPGRSLRLSCSASGFTFSGYHLSWVRQAPGKGLEWVAMISSGGSYTYYADSVKGRFAISRDNAKNTLFLQMDSLRPEDTGVYFCARHGDDPAWFAYWGQGTPVTVSS VL: DIQLTQSPSSLSASVGDRVTITCSVSSSISSNNLHWYQQKPGKAPKPWIYGTSNLASGVPSRFSGSGSGTDYTFTISSLQPEDIATYYCQQWSSYPYMYTFGQGTKVEIK | binds |
| MYT2191 (antibody, V domains shown, IgG) VH: EVQLVESGGGVVQPGRSLRLSCSASGFTFSGHGLSWVRQAPGKGLEWVAMISSGGSYTYYADSVKGRFAISRDNAKNTLFLQMDSLRPEDTGVYFCARHGDDPAWFAYWGQGTPVTVSS VL: DIQLTQSPSSLSASVGDRVTITCSVSSSISSNNLHWYQQKPGKAPKPWIYGTSNLASGVPSRFSGSGSGTDYTFTISSLQPEDIATYYCQQWSSYPYMYTFGQGTKVEIK | binds |
| MYT2187 (antibody, V domains shown, IgG) VH: EVQLVESGGGVVQPGRSLRLSCSASGFHFSGYGLSWVRQAPGKGLEWVAMISSGGSYTYYADSVKGRFAISRDNAKNTLFLQMDSLRPEDTGVYFCARHGDDPAWFAYWGQGTPVTVSS VL: DIQLTQSPSSLSASVGDRVTITCSVSSSISSNNLHWYQQKPGKAPKPWIYGTSNLASGVPSRFSGSGSGTDYTFTISSLQPEDIATYYCQQWSSYPYMYTFGQGTKVEIK | binds |
| MYT2201 (antibody, V domains shown, IgG) VH: EVQLVESGGGVVQPGRSLRLSCSASGFTFSGYGLSWVRQAPGKGLEWVAMISSGGHYTYYADSVKGRFAISRDNAKNTLFLQMDSLRPEDTGVYFCARHGDDPAWFAYWGQGTPVTVSS VL: DIQLTQSPSSLSASVGDRVTITCSVSSSISSNNLHWYQQKPGKAPKPWIYGTSNLASGVPSRFSGSGSGTDYTFTISSLQPEDIATYYCQQWSSYPYMYTFGQGTKVEIK | binds |
| MYT2189 (antibody, V domains shown, IgG) VH: EVQLVESGGGVVQPGRSLRLSCSASGFTFHGYGLSWVRQAPGKGLEWVAMISSGGSYTYYADSVKGRFAISRDNAKNTLFLQMDSLRPEDTGVYFCARHGDDPAWFAYWGQGTPVTVSS VL: DIQLTQSPSSLSASVGDRVTITCSVSSSISSNNLHWYQQKPGKAPKPWIYGTSNLASGVPSRFSGSGSGTDYTFTISSLQPEDIATYYCQQWSSYPYMYTFGQGTKVEIK | binds |
| MYT4507 (antibody, V domains shown, IgG) VH: EVQLVESGGGLVQPGGSLRLSCAASGFNIRTQSIHWVRQAPGKGLEWIGDIFPIDGITDYADSVKGRFTISADTSKNTAYLQMNSLRAEDTAVYYCARGSWSWPSGMDYYLDYWGQGTLVTVSS VL: not shown | binds |
| MYT4510 (antibody, V domains shown, IgG) VH: EVQLVESGGGLVQPGGSLRLSCAASGFNIRTQSIHWVRQAPGKGLEWIGDIFPIDGITDYADSVKGRFTISADTSKNTAYLQMNSLRAEDTAVYYCARGSWSWPSGMDYYLDYWGQGTLVTVSS VL: not shown | binds |
| MYT4509 (antibody, V domains shown, IgG) VH: EVQLVESGGGLVQPGGSLRLSCAASGFNIRTQSIHWVRQAPGKGLEWIGDIFPIDGITDYADSVKGRFTISADTSKNTAYLQMNSLRAEDTAVYYCARGSWSWPSGMDYYLDYWGQGTLVTVSS VL: not shown | binds |
